Laboratory results published in US20240409619A1.

How the values were obtained:
Assay in all cases: cell-based or functional assay
[1] = biological target: SARS-COV-2 spike of variant B.1.1.7 (Alpha) on pseudotyped virus (SARS-COV-2) (UniProt P0DTC2)
[2] = biological target: SARS-COV-2 spike of variant B.1.351 (Beta) on pseudotyped virus (SARS-COV-2) (UniProt P0DTC2)
[3] = biological target: SARS-COV-2 spike of variant B.1.526 (Iota) on pseudotyped virus (SARS-COV-2) (UniProt P0DTC2)
[4] = biological target: SARS-COV-2 spike of variant B.1.617.2 (Delta) on pseudotyped virus (SARS-COV-2) (UniProt P0DTC2)

Row | Substance | fold reduction in ID50, pseudovirus neutralization [1] | fold reduction in ID50, pseudovirus neutralization [2] | fold reduction in ID50, pseudovirus neutralization [3] | fold reduction in ID50, pseudovirus neutralization [4] | fold change of pseudovirus neutralization against WA1/2020 [2]
1 | DMAb 2130_FcTM (antibody) | < 3 fold | < 3 fold | < 3 fold | < 3 fold | 
2 | DMAb REGN10987 (antibody) |  |  |  |  | < 3 fold
